{"source": "patent US9845340B2", "about": "“Peptides that specifically bind HGF receptor (cMet) and uses thereof” (Dyax Corp., priority 2003, dated 2017)", "key": {"[1]": {"target": "T1, 3T3 cells that over-express human cMet (Homo sapiens, UniProt P08581)", "T1 construct": "expressed in transfected cells; host or cells: 3T3 cells", "T1 sequence (P08581 25-1390)": "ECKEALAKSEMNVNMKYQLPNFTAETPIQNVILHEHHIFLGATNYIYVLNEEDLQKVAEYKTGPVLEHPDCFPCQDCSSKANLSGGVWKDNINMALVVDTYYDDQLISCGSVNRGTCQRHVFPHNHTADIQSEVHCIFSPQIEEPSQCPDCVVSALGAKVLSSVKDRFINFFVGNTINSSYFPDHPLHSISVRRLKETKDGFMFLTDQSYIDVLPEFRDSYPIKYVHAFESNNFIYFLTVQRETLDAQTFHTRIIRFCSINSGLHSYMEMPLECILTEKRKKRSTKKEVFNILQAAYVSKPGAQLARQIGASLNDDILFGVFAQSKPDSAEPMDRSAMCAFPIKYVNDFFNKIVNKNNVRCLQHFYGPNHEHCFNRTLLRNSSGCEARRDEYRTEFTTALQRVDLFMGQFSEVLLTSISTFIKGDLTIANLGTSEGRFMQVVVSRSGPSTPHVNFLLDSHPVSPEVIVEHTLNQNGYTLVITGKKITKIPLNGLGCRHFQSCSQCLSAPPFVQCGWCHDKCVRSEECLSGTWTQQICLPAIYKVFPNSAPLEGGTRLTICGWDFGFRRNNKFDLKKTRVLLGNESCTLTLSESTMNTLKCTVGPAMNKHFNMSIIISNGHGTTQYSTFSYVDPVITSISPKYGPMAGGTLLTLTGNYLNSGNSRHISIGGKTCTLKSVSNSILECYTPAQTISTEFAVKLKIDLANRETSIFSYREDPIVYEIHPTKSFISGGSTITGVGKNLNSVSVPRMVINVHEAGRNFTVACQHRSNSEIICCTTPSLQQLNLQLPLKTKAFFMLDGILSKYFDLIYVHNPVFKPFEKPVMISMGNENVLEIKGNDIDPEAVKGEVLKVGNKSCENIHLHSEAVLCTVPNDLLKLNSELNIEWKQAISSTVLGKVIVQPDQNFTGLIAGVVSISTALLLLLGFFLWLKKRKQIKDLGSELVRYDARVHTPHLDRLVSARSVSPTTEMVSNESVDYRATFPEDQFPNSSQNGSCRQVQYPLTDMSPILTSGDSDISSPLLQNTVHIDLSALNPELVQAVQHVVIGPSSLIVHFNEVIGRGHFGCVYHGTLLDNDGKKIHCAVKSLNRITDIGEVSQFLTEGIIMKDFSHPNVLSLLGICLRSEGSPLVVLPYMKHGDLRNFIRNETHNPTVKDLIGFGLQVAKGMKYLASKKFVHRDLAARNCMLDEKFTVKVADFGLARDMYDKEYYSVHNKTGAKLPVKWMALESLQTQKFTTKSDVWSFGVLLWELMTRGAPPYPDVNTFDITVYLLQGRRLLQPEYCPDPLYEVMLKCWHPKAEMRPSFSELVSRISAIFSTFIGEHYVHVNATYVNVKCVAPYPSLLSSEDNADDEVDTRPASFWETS", "test": "Whole cell ELISA of peptide-displaying phage", "assay_type": "cell-based", "details": "phage isolate; 3T3 cells expressing human cMet vs. non-expressing 3T3 cells", "procedure,_shortened": "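3T3 cells over-expressing human cMet seeded 10^5/well, pelleted and fixed with 0.1% glutaraldehyde 12 min at 37 °C. Blocked peptide-displaying phage bound 1 h at room temperature; after PBST wash, bound phage detected with HRP-conjugated anti-M13 antibody.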"}, "cMet-Fc fusion protein": {"target": "cMet-Fc fusion protein (Homo sapiens, UniProt P08581)", "sequence (P08581 25-307 limits assumed)": "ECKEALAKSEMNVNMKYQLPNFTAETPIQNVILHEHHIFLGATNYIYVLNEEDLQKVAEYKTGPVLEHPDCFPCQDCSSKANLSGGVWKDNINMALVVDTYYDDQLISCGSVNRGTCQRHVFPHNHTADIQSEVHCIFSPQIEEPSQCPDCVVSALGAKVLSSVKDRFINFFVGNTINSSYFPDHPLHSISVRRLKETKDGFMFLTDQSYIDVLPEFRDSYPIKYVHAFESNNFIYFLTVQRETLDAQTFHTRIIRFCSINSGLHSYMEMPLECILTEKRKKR", "sequence (P08581 with tags, fused parts or gaps limits assumed)": "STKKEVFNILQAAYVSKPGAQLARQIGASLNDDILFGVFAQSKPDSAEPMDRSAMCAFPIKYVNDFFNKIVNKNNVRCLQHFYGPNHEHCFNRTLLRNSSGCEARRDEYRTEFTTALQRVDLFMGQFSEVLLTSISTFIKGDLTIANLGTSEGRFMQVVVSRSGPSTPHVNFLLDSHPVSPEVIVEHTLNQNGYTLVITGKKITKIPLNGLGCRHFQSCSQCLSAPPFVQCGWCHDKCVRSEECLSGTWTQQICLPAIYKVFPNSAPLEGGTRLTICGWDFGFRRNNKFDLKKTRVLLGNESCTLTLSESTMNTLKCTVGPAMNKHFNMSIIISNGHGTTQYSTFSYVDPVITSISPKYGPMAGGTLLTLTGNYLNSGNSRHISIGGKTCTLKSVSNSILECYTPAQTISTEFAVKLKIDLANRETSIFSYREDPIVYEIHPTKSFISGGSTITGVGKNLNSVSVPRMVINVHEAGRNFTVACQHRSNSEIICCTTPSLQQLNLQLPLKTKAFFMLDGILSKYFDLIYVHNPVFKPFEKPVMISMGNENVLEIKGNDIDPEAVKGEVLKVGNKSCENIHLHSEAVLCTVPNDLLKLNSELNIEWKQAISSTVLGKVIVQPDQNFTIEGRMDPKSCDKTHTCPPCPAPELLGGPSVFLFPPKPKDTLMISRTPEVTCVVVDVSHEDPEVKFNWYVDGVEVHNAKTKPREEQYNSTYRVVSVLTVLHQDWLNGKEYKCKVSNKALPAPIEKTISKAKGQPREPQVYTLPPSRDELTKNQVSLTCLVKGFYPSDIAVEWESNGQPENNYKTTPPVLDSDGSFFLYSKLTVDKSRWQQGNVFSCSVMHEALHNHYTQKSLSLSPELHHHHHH", "test": "Protein phage ELISA: peptide-displaying phage binding to soluble cMet-Fc versus TRAIL-Fc", "details": "phage isolate; cMet-Fc vs. TRAIL-Fc", "procedure,_shortened": "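Plates coated with 0.5 μg/mL cMet-Fc or, as background, TRAIL-Fc, then blocked with 3% BSA in PBST. Peptide-displaying phage bound 2 h at room temperature. Detection with HRP-anti-M13 antibody.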"}}}
{"compound": "AQGGRYPFYDTDWFKWEMYVL (Synthetically generated cMet-binding peptide sequence) [SEQ ID NO: 496]", "values": [{"measurement": "WC ELISA", "setting": "[1]", "result": 1.30, "unit": "fold over background"}, {"measurement": "Protein ELISA", "setting": "cMet-Fc fusion protein", "result": 3.8, "unit": "fold over background"}]}
{"compound": "AQFSGLVMYGRTHEVQWTFGSM (Synthetically generated cMet-binding peptide sequence) [SEQ ID NO: 477]", "values": [{"measurement": "WC ELISA", "setting": "[1]", "result": 1.30, "unit": "fold over background"}, {"measurement": "Protein ELISA", "setting": "cMet-Fc fusion protein", "result": 3.5, "unit": "fold over background"}]}
{"compound": "AQWNQWDEFMWFLNPPPIGLMW (Synthetically generated cMet-binding peptide sequence) [SEQ ID NO: 480]", "values": [{"measurement": "WC ELISA", "setting": "[1]", "result": 1.23, "unit": "fold over background"}, {"measurement": "Protein ELISA", "setting": "cMet-Fc fusion protein", "result": 3.3, "unit": "fold over background"}]}
{"compound": "CSCC[C@H](NC(=O)[C@H](CCCNC(=N)N)NC(=O)[C@H](Cc1c[nH]c2ccccc12)NC(=O)[C@H](CO)NC(=O)[C@H](CO)NC(=O)[C@H](CC(C)C)NC(=O)[C@H](Cc1ccccc1)NC(=O)[C@H](CC(=O)O)NC(=O)[C@H](CC(C)C)NC(=O)[C@H](Cc1ccc(O)cc1)NC(=O)[C@H](Cc1c[nH]c2ccccc12)NC(=O)[C@H](Cc1ccc(O)cc1)NC(=O)[C@@H]1CCCN1C(=O)[C@H](CCC(=O)O)NC(=O)[C@H](CCC(=O)O)NC(=O)[C@@H](NC(=O)[C@H](CCC(=O)O)NC(=O)[C@H](CCCNC(=N)N)NC(=O)[C@H](CCC(N)=O)NC(=O)[C@H](C)NC(C)=O)C(C)C)C(=O)N[C@@H](Cc1c[nH]cn1)C(=O)N[C@@H](CCC(=O)O)C(=O)NCC(=O)NCC(=O)NCC(=O)N[C@@H](CCCCNC(=O)c1ccc2c(c1)C(=O)OC21c2ccc(O)cc2Oc2cc(O)ccc21)C(N)=O", "note": "[SEQ ID NO: 451]", "values": [{"measurement": "WC ELISA", "setting": "[1]", "result": 1.33, "unit": "fold over background"}, {"measurement": "Protein ELISA", "setting": "cMet-Fc fusion protein", "result": 8.2, "unit": "fold over background"}]}
{"compound": "AQLFQYLWHDDPQGAFFQLSMW (Synthetically generated cMet-binding peptide sequence) [SEQ ID NO: 483]", "values": [{"measurement": "WC ELISA", "setting": "[1]", "result": 1.23, "unit": "fold over background"}, {"measurement": "Protein ELISA", "setting": "cMet-Fc fusion protein", "result": 3.1, "unit": "fold over background"}]}
{"compound": "GDYYQCQFSKDMYSERCWPYDP (Synthetically generated cMet-binding peptide sequence) [SEQ ID NO: 397]", "values": [{"measurement": "WC ELISA", "setting": "[1]", "result": 1.30, "unit": "fold over background"}, {"measurement": "Protein ELISA", "setting": "cMet-Fc fusion protein", "result": 7.0, "unit": "fold over background"}]}
{"compound": "CC[C@H](C)[C@H](NC(=O)[C@H](Cc1c[nH]c2ccccc12)NC(=O)[C@H](Cc1c[nH]cn1)NC(=O)CNC(=O)[C@H](C)NC(C)=O)C(=O)N[C@H]1CSSC[C@@H](C(=O)N[C@@H](CCC(N)=O)C(=O)N[C@@H](Cc2c[nH]c3ccccc23)C(=O)N[C@@H](Cc2c[nH]cn2)C(=O)NCC(=O)N[C@H](C(=O)NCC(=O)NCC(=O)NCC(=O)N[C@@H](CCCCNC(=O)c2ccc3c(c2)C(=O)OC32c3ccc(O)cc3Oc3cc(O)ccc32)C(N)=O)[C@@H](C)O)NC(=O)[C@H](CO)NC(=O)[C@H](Cc2ccccc2)NC(=O)[C@H]([C@@H](C)O)NC(=O)[C@@H]2CCCN2C(=O)[C@@H]2CCCN2C(=O)CNC(=O)[C@H](C(C)C)NC1=O", "note": "[SEQ ID NO: 071]", "values": [{"measurement": "WC ELISA", "setting": "[1]", "result": 1.40, "unit": "fold over background"}, {"measurement": "Protein ELISA", "setting": "cMet-Fc fusion protein", "result": 13.5, "unit": "fold over background"}]}
{"compound": "AGETFCSGWPTFECMQWGT (Synthetically generated cMet-binding peptide sequence) [SEQ ID NO: 095]", "values": [{"measurement": "WC ELISA", "setting": "[1]", "result": 1.23, "unit": "fold over background"}, {"measurement": "Protein ELISA", "setting": "cMet-Fc fusion protein", "result": 16.2, "unit": "fold over background"}]}
{"compound": "GSEFECTGWPEFRCYEYAP (Synthetically generated cMet-binding peptide sequence) [SEQ ID NO: 100]", "values": [{"measurement": "WC ELISA", "setting": "[1]", "result": 1.20, "unit": "fold over background"}, {"measurement": "Protein ELISA", "setting": "cMet-Fc fusion protein", "result": 8.4, "unit": "fold over background"}]}
{"compound": "GDHLTCEFRDDGWKEHCWWSDP (Synthetically generated cMet-binding peptide sequence) [SEQ ID NO: 403]", "values": [{"measurement": "WC ELISA", "setting": "[1]", "result": 1.23, "unit": "fold over background"}, {"measurement": "Protein ELISA", "setting": "cMet-Fc fusion protein", "result": 11.1, "unit": "fold over background"}]}
